Results as given in the supplement of paper PMC9112550, “Optimization of the antimicrobial peptide Bac7 by deep mutational scanning” (BMC Biology, 2022).

Test system: Escherichia coli TOP10
Assay: shrunken log2 fold change of peptide-encoding DNA abundance (4.5 h post-induction vs induction); higher = less antimicrobial activity (less host growth inhibition)
Conditions: time post-induction: 4.5 h; library: site-saturation at positions 5, 18, 19, 20
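Also: peptides expressed intracellularly from a pBAD plasmid library in pooled LB shake-flask culture, induced with 0.3% L-arabinose, DNA abundance read by NGS, three biological replicates, DESeq2 with apeglm shrinkage.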

Sequence	shrunken log2 fold change
RRIRRRPPRLPRPRPRPVERPRP	-0.049
RRIRRRPPRLPRPRPRPVESPRP	0.126
RRIRRRPPRLPRPRPRPVFHPRP	0.258
RRIRRRPPRLPRPRPRPVFIPRP	-0.0708
RRIRRRPPRLPRPRPRPVFVPRP	0.292
RRIRRRPPRLPRPRPRPVGRPRP	0.472
RRIRRRPPRLPRPRPRPVHEPRP	0.381
RRIRRRPPRLPRPRPRPVHRPRP	-0.0888
RRIRRRPPRLPRPRPRPVICPRP	0.164
RRIRRRPPRLPRPRPRPVIEPRP	0.119
RRIRRRPPRLPRPRPRPVKHPRP	0.25
RRIRRRPPRLPRPRPRPVLHPRP	0.0722
RRIRRRPPRLPRPRPRPVLPPRP	0.584
RRIRRRPPRLPRPRPRPVMHPRP	0.0548
RRIRRRPPRLPRPRPRPVNMPRP	-0.156
RRIRRRPPRLPRPRPRPVPEPRP	0.543
RRIRRRPPRLPRPRPRPVPWPRP	0.573
RRIRRRPPRLPRPRPRPVQAPRP	0.464
RRIRRRPPRLPRPRPRPVRHPRP	0.247
RRIRRRPPRLPRPRPRPVRRPRP	0.619
RRIRRRPPRLPRPRPRPVRYPRP	0.181
RRIRRRPPRLPRPRPRPVSLPRP	-0.15
RRIRRRPPRLPRPRPRPVSYPRP	0.241
RRIRRRPPRLPRPRPRPVTGPRP	0.0301
RRIRRRPPRLPRPRPRPVVAPRP	0.43

Sequence	shrunken log2 fold change
RRIRRRPPRLPRPRPRPVVGPRP	0.487
RRIRRRPPRLPRPRPRPVWAPRP	0.339
RRIRRRPPRLPRPRPRPVWIPRP	0.148
RRIRRRPPRLPRPRPRPVYGPRP	-0.0668
RRIRRRPPRLPRPRPRPVYPPRP	-0.284
RRIRRRPPRLPRPRPRPWACPRP	0.0634
RRIRRRPPRLPRPRPRPWASPRP	0.289
RRIRRRPPRLPRPRPRPWCIPRP	-0.366
RRIRRRPPRLPRPRPRPWCLPRP	-0.214
RRIRRRPPRLPRPRPRPWCMPRP	-0.107
RRIRRRPPRLPRPRPRPWFCPRP	-0.101
RRIRRRPPRLPRPRPRPWFNPRP	-0.241
RRIRRRPPRLPRPRPRPWFPPRP	-0.44
RRIRRRPPRLPRPRPRPWHPPRP	0.0925
RRIRRRPPRLPRPRPRPWIMPRP	0.0607
RRIRRRPPRLPRPRPRPWINPRP	-0.37
RRIRRRPPRLPRPRPRPWIQPRP	0.0321
RRIRRRPPRLPRPRPRPWKAPRP	0.0256
RRIRRRPPRLPRPRPRPWKMPRP	-0.00577
RRIRRRPPRLPRPRPRPWLPPRP	0.221
RRIRRRPPRLPRPRPRPWLYPRP	0.0161
RRIRRRPPRLPRPRPRPWNCPRP	0.0332
RRIRRRPPRLPRPRPRPWNIPRP	-0.0317
RRIRRRPPRLPRPRPRPWPKPRP	0.13
RRIRRRPPRLPRPRPRPWQPPRP	-0.108

Sequence	shrunken log2 fold change
RRIRRRPPRLPRPRPRPWRVPRP	0.277
RRIRRRPPRLPRPRPRPWTYPRP	-0.0139
RRIRRRPPRLPRPRPRPWVCPRP	0.0925
RRIRRRPPRLPRPRPRPWVGPRP	-0.00367
RRIRRRPPRLPRPRPRPWWAPRP	0.0813
RRIRRRPPRLPRPRPRPWYPPRP	-0.206
RRIRRRPPRLPRPRPRPYCVPRP	-0.462
RRIRRRPPRLPRPRPRPYCWPRP	-0.474
RRIRRRPPRLPRPRPRPYDAPRP	-0.635
RRIRRRPPRLPRPRPRPYEPPRP	-0.846
RRIRRRPPRLPRPRPRPYHNPRP	-0.819
RRIRRRPPRLPRPRPRPYIYPRP	-0.268
RRIRRRPPRLPRPRPRPYKRPRP	-0.238
RRIRRRPPRLPRPRPRPYLYPRP	-0.362
RRIRRRPPRLPRPRPRPYMMPRP	-0.699
RRIRRRPPRLPRPRPRPYNQPRP	-0.207
RRIRRRPPRLPRPRPRPYPAPRP	0.0876
RRIRRRPPRLPRPRPRPYPGPRP	-0.123
RRIRRRPPRLPRPRPRPYQDPRP	0.00143
RRIRRRPPRLPRPRPRPYRQPRP	-0.13
RRIRRRPPRLPRPRPRPYSVPRP	0.0601
RRIRRRPPRLPRPRPRPYVVPRP	-0.121
RRIRRRPPRLPRPRPRPYWGPRP	0.133
RRIRRRPPRLPRPRPRPYWWPRP	-0.0898
RRIRRRPPRLPRPRPRPYYCPRP	-0.132

Sequence	shrunken log2 fold change
RRIRRRPPRLPRPRPRPYYDPRP	-1.02
RRIRRRPPRLPRPRPRPYYGPRP	-0.132
RRIRRRPPRLPRPRPRPYYHPRP	-0.645
RRIRRRPPRLPRPRPRPYYIPRP	-0.584
RRIRSRPPRLPRPRPRPAANPRP	0.403
RRIRSRPPRLPRPRPRPACKPRP	-0.146
RRIRSRPPRLPRPRPRPADIPRP	0.0495
RRIRSRPPRLPRPRPRPAGKPRP	-0.284
RRIRSRPPRLPRPRPRPAGVPRP	0.0729
RRIRSRPPRLPRPRPRPAKEPRP	0.0106
RRIRSRPPRLPRPRPRPAMIPRP	0.365
RRIRSRPPRLPRPRPRPAMLPRP	0.0679
RRIRSRPPRLPRPRPRPANRPRP	0.223
RRIRSRPPRLPRPRPRPAPAPRP	0.741
RRIRSRPPRLPRPRPRPAPEPRP	0.479
RRIRSRPPRLPRPRPRPAPHPRP	0.276
RRIRSRPPRLPRPRPRPAQVPRP	0.09
RRIRSRPPRLPRPRPRPARAPRP	0.985
RRIRSRPPRLPRPRPRPARFPRP	0.181
RRIRSRPPRLPRPRPRPARQPRP	-0.0654
RRIRSRPPRLPRPRPRPARSPRP	0.158
RRIRSRPPRLPRPRPRPAVDPRP	0.462
RRIRSRPPRLPRPRPRPAVRPRP	-0.103
RRIRSRPPRLPRPRPRPAYAPRP	0.0867
RRIRSRPPRLPRPRPRPAYGPRP	-0.122

Sequence	shrunken log2 fold change
RRIRSRPPRLPRPRPRPAYPPRP	0.0454
RRIRSRPPRLPRPRPRPAYTPRP	0.0457
RRIRSRPPRLPRPRPRPCAHPRP	-0.235
RRIRSRPPRLPRPRPRPCCMPRP	-0.0571
RRIRSRPPRLPRPRPRPCECPRP	-0.0304
RRIRSRPPRLPRPRPRPCELPRP	0.0778
RRIRSRPPRLPRPRPRPCFVPRP	-0.378
RRIRSRPPRLPRPRPRPCHYPRP	-0.0214
RRIRSRPPRLPRPRPRPCILPRP	-0.241
RRIRSRPPRLPRPRPRPCKAPRP	0.00989
RRIRSRPPRLPRPRPRPCKKPRP	-0.121
RRIRSRPPRLPRPRPRPCMKPRP	-1.6
RRIRSRPPRLPRPRPRPCPFPRP	-0.138
RRIRSRPPRLPRPRPRPCPTPRP	-0.138
RRIRSRPPRLPRPRPRPCPVPRP	-0.0785
RRIRSRPPRLPRPRPRPCPYPRP	0.0125
RRIRSRPPRLPRPRPRPCQNPRP	0.0167
RRIRSRPPRLPRPRPRPCRSPRP	-0.0435
RRIRSRPPRLPRPRPRPCSFPRP	-0.825
RRIRSRPPRLPRPRPRPCSLPRP	-0.484
RRIRSRPPRLPRPRPRPCSRPRP	-0.179
RRIRSRPPRLPRPRPRPCTMPRP	-0.154
RRIRSRPPRLPRPRPRPCVGPRP	-0.0336
RRIRSRPPRLPRPRPRPCVPPRP	-0.0369
RRIRSRPPRLPRPRPRPCVRPRP	-0.103

Sequence	shrunken log2 fold change
RRIRSRPPRLPRPRPRPCWCPRP	0.0677
RRIRSRPPRLPRPRPRPCWNPRP	-0.296
RRIRSRPPRLPRPRPRPCYHPRP	-0.297
RRIRSRPPRLPRPRPRPDEFPRP	-0.149
RRIRSRPPRLPRPRPRPDFGPRP	0.0573
RRIRSRPPRLPRPRPRPDFRPRP	-0.0983
RRIRSRPPRLPRPRPRPDGTPRP	-0.199
RRIRSRPPRLPRPRPRPDHFPRP	0.0963
RRIRSRPPRLPRPRPRPDHIPRP	-0.119
RRIRSRPPRLPRPRPRPDIMPRP	-0.661
RRIRSRPPRLPRPRPRPDKPPRP	-0.266
RRIRSRPPRLPRPRPRPDLAPRP	0.444
RRIRSRPPRLPRPRPRPDLDPRP	0.152
RRIRSRPPRLPRPRPRPDNWPRP	-0.39
RRIRSRPPRLPRPRPRPDPSPRP	0.0173
RRIRSRPPRLPRPRPRPDRHPRP	-0.0205
RRIRSRPPRLPRPRPRPDVIPRP	0.0141
RRIRSRPPRLPRPRPRPDWFPRP	0.0986
RRIRSRPPRLPRPRPRPDWVPRP	0.305
RRIRSRPPRLPRPRPRPDYHPRP	-0.271
RRIRSRPPRLPRPRPRPEACPRP	1.03
RRIRSRPPRLPRPRPRPEALPRP	-0.0643
RRIRSRPPRLPRPRPRPEETPRP	-0.00674
RRIRSRPPRLPRPRPRPEEVPRP	0.0829
RRIRSRPPRLPRPRPRPEFAPRP	0.413
